Measurements published in patent US20170101464A1.

Target: hTEM8-AP (UniProt Q9H6X2)
Experiment: Biacore affinity measurement, Fab

UniProt Q9H6X2, sequence (Q9H6X2 33-321): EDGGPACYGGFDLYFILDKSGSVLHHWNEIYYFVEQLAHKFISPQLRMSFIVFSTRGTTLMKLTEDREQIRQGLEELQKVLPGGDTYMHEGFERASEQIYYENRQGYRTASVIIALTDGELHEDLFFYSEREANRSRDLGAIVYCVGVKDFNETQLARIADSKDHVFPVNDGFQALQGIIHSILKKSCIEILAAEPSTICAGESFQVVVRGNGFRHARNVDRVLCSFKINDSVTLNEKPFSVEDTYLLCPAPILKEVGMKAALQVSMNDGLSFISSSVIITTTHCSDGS

B1: M825 anti-TEM8 Fab (Fab, V domains shown)
VH: QVQLVQSGAEVKKPGTSVKVSCKVPGYTFSSYAISWVRQAPGQGLEWMGGIIPIFGTTNYAQKFQGRVTITGEESTSTVYMELSSLRSEDTAVYYCARDTDYMFDYWGQGTLVTVSS
VL: SSELTQDPVVSVALGETVSITCQGDNLRDFYASWYQQKPGQAPLLVMYGKNRRPSGIPDRFSGSTSGNTLSLTITGAQAEDEADYYCSSRDNSKHVVFGGGTKVTVL
Kd: 0.0591 nM
koff: 0.00018 s⁻¹
kon: 3.05e+06 M⁻¹ s⁻¹
